Results published in publication PMC8062120.
Where a chain is given by its changes, count along the chain named. Numbers in names are those of the source.

B1: Myotilin Ig1Ig2^250–444 (Ig1Ig2 tandem), Q9UBF9 K359A (protein)
chain: PRFIQVPENMSIDEGRFCRMDFKVSGLPAPDVSWYLNGRTVQSDDLHKMIVSEKGLHSLIFEVVRASDAGAYACVAKNRAGEATFTVQLDVLAKEHKRAPMFIYKPQSKAVLEGDSVKLECQISAIPPPKLFWKRNNEMVQFNTDRISLYQDNTGRVTLLIKDVNKKDAGWYTVSAVNEAGVTTCNTRLDVTARP
B2: Myotilin Ig1Ig2^250–444 (Ig1Ig2 tandem), Q9UBF9 K354A; K359A (protein)
chain: B1 chain with K105A
B3: Myotilin Ig1Ig2^250–444 (Ig1Ig2 tandem), Q9UBF9 K354A (protein)
chain: B1 chain with K105A, A110K
B4: Myotilin Ig1Ig2^250–444 (Ig1Ig2 tandem), Q9UBF9 K411A (protein)
chain: B1 chain with A110K, K162A
B5: Myotilin Ig1Ig2^250–444 (Ig1Ig2 tandem), Q9UBF9 K358A (protein)
chain: B1 chain with K109A, A110K
B6: Myotilin Ig1Ig2^250–444 (Ig1Ig2 tandem), Q9UBF9 R405K (protein)
chain: B1 chain with A110K, R156K
B7: Myotilin Ig1Ig2^250–444 (Ig1Ig2 tandem), Q9UBF9 K367A (protein)
chain: B1 chain with A110K, K118A
B8: Myotilin Ig1Ig2^250–444 (Ig1Ig2 tandem), Q9UBF9 250-444 (domain or fragment)
chain: B1 chain with A110K
B9: Myotilin Ig1Ig2^250–444 (Ig1Ig2 tandem), Q9UBF9 Q356A (protein)
chain: B1 chain with Q107A, A110K
B10: Full-length myotilin with N-terminal thioredoxin tag (Trx-MYOT), Q9UBF9 1-498 (natural protein)
chain: MFNYERPKHFIQSQNPCGSRLQPPGPETSSFSSQTKQSSIIIQPRQCTEQRFSASSTLSSHITMSSSAFPASPQQHAGSNPGQRVTTTYNQSPASFLSSILPSQPDYNSSKIPSAMDSNYQQSSAGQPINAKPSQTANAKPIPRTPDHEIQGSKEALIQDLERKLKCKDTLLHNGNQRLTYEEKMARRLLGPQNAAAVFQAQDDSGAQDSQQHNSEHARLQVPTSQVRSRSTSRGDVNDQDAIQEKFYPPRFIQVPENMSIDEGRFCRMDFKVSGLPAPDVSWYLNGRTVQSDDLHKMIVSEKGLHSLIFEVVRASDAGAYACVAKNRAGEATFTVQLDVLAKEHKRAPMFIYKPQSKKVLEGDSVKLECQISAIPPPKLFWKRNNEMVQFNTDRISLYQDNTGRVTLLIKDVNKKDAGWYTVSAVNEAGVTTCNTRLDVTARPNQTLPAPKQLRVRPTFSKYLALNGKGLNVKQAFNPEGEFQRLAAQSGLYESEEL

Experiments:
[1] = molecular target: F-actin (rabbit skeletal muscle actin, polymerized), P68135; assay: F-actin co-sedimentation assay; settings: chain shown with the change; for response: 8 μM protein, percentage of theoretical total binding (100%), parent: est. 95, read off a plot
[2] = molecular target: T1, F-actin (rabbit skeletal muscle actin, polymerized) (rabbit), P68135; assay: co-sedimentation; F-actin co-sedimentation, conditions B2 (PIPES pH 6.8, 100 mM NaCl); fixed 6 μM myotilin fragment in 20 μl mixed with pre-polymerized F-actin (0 to 60 μM) in 20 μl; one site-specific binding fit; apparent Kd; settings: remark: other sources report otherwise
[3] = molecular target: T1, F-actin (rabbit skeletal muscle actin, …); assay: co-sedimentation; F-actin co-sedimentation, conditions B1 (HEPES pH 7.4); fixed 16 μM myotilin construct in 20 μl mixed with pre-polymerized F-actin (0–120 μM) in 20 μl; room temperature 30 min, 125,000 × g; densitometry, one site-specific binding fit; apparent Kd; settings: remark: other sources report otherwise

| Binder | response [1] [% bound] | further results |
| --- | --- | --- |
| B1 | 72 | – |
| B2 | 42 | – |
| B3 | 55 | – |
| B4 | 87 | – |
| B5 | 80 | – |
| B6 | – | Kd ([1]; B1 conditions (asterisk)): 7.5 µM |
| B7 | 87 | – |
| B8 | – | Kd [2]: 12.9 µM; Kd [3]: 9.2 µM |
| B9 | 94 | – |
| B10 | – | Kd [2]: 0.29 µM |
